Biological target: the molecule itself
Test: SEC; gel filtration of purified wild type MpPR on HiLoad 16/60 Superdex 200 in 10 mM Tris-HCl pH 8.0, 50 mM NaCl, 5 mM MgCl2, 1 mM DTT; molecular mass calibrated with high and low molecular weight calibration kits

B1: (+)-pulegone reductase from Mentha piperita (enzyme)
chain: MVMNKQIVLNNYINGSLKQSDLALRTSTICMEIPDGCNGAILVKNLYLSVNPYLILRMGKLDIPQFDSILPGSTIVSYGVSKVLDSTHPSYEKGELIWGSQAGWEEYTLIQNPYNLFKIQDKDVPLSYYVGILGMPGMTAYAGFFEICSPKKGETVFVTAAAGSVGQLVGQFAKMFGCYVVGSAGSKEKVDLLKNKFGFDDAFNYKEESDYDTALKRHFPEGIDIYFDNVGGKMLEAVINNMRVHGRIAVCGMVSQYSLKQPEGVHNLLKLIPKQIRMQGFVVVDYYHLYPKFLEMVLPRIKEGKVTYVEDISEGLESAPSALLGVYVGRNVGNQVVAVSRE
notes: (+)-pulegone reductase, Mentha piperita, UniProt Q6WAU0; gene cloned into pET28a with NheI and HindIII; also called MpPR; wild type MpPR; source: E. coli BL21(DE3), purified (Ni-NTA, gel filtration on Superdex 200)
- stoichiometry N: 2

Source: PMC8670242, “Functional Characterization and Structural Insights Into Stereoselectivity of Pulegone Reductase in Menthol Biosynthesis” (Frontiers in Plant Science, 2021)
